According to the supplement of paper PMC12338614:
± gives the uncertainty stated by the source.

B1: library; numbered along this chain (parent)
chain: MEVVDPQQLGMFTEGELMSVGMDTFIHRIDSTEVIYQPRRKRAKLIGKYLMGDLLGEGSYGKVKEVLDSETLCRRAVKILKKKKLRRIPNGEANVKKEIQLLRRLRHKNVIQLVDVLYNEEKQKMYMVMEYCVCGMQEMLDSVPEKRFPVCQAHGYFCQLIDGLEYLHSQGIVHKDIKPGNLLLTTGGTLKISDLGVAEALHPFAADDTCRTSQGSPAFQPPEIANGLDTFSGFKVDIWSAGVTLYNITTGLYPFEGDNIYKLFENIGKGSYAIPGDCGPPLSDLLKGMLEYEPAKRFSIRQIRQHSWFRKKHPPAEAPVPIPPSPDTKDRWRSMTVVPYLEDLHGADEDEDLFDIEDDIIYTQDFTVPGQVPEEEASHNGQRRGLPKAVCMNGTEAAQLSTKSRAEGRAPNPARKACSASSKIRRLSACKQQ

Variants of: B1
Test: STK11 functional score (HeLa growth suppression), rescaled enrichment; synonymous median = 1, nonsense median = 0 (normalised score)
Settings: with HeLa; variant type: missense
Outline: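 Codon-randomised (POPCode) libraries of codon-optimised STK11 were integrated by Bxb1 at an AAVS1 landing pad in HeLa, in three regions each transfected three times. Integrants (BFP-negative, mCherry-positive) were FACS-sorted 4–5 days after electroporation and grown about two weeks; tiled gDNA amplicons were sequenced on NextSeq (~2 million reads per tile). The functional score is the wild-type-corrected post/pre-selection log ratio, rescaled to synonymous and nonsense medians, merged over codons and replicate transfections, with bootstrapped error.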

STK11 functional score, by site and new letter:
P281: N 1.66 ± 0.19; F 1.23 ± 0.2; I 1.46 ± 0.18; D 1.45 ± 0.3; W 0.551 ± 0.072; Q 1.51 ± 0.31; V 1.19 ± 0.14; E 1.3 ± 0.46; K 1.26 ± 0.79; T 1.46 ± 0.22; S 0.965 ± 0.17; A 0.84 ± 0.1; G 0.787 ± 0.18; R 0.969 ± 0.13; C 0.746 ± 0.32; Y 1.38 ± 0.23; M 1.31 ± 0.21; L 1.18 ± 0.11
L286: F 0.971 ± 0.3; D -0.166 ± 0.12; N 0.195 ± 0.1; H 0.00834 ± 0.071; Q 0.0782 ± 0.082; R -0.117 ± 0.22; I 1.36 ± 0.24; S 0.0276 ± 0.19; T 1.12 ± 0.14; W 1.16 ± 0.093; V 1.14 ± 0.18; Y 1.36 ± 0.45; G -0.0797 ± 0.098; E 0.235 ± 0.36; P -0.27 ± 0.087; A 0.163 ± 0.2
G279: F 1.27 ± 0.17; Y 1.43 ± 0.33; M 0.984 ± 0.61; V 0.88 ± 0.32; P 1.17 ± 0.33; H 1.6 ± 0.31; T 1.57 ± 0.21; I 1.41 ± 0.4; N 1.57 ± 0.16; W 1.06 ± 0.077; A 0.991 ± 0.39; E 0.538 ± 0.088; Q 1.32 ± 0.16; C 0.657 ± 0.1; S 1.25 ± 0.12; L 1.41 ± 0.29; R 0.829 ± 0.35
S271: I 1.15 ± 0.3; F 1.03 ± 0.34; W 0.443 ± 0.6; T 1.17 ± 0.2; P 0.317 ± 0.1; R 1.04 ± 0.27; V 0.986 ± 0.14; A 1.11 ± 0.31; M 1.5 ± 0.21; C 0.412 ± 0.07; D 1.64 ± 0.2; Q 1.08 ± 0.65; G 0.976 ± 0.3; L 1.39 ± 0.29; Y -0.251 ± 0.55
I267: L 0.603 ± 0.12; N 0.995 ± 0.36; M 0.815 ± 0.11; P 0.26 ± 0.21; W 0.777 ± 0.086; H 1.45 ± 0.35; D 0.629 ± 0.22; G 0.602 ± 0.3; S 1.16 ± 0.29; R 1.01 ± 0.33; V 1.09 ± 0.29; T 1.11 ± 0.46; F 0.659 ± 0.071
P280: I 1.36 ± 0.34; R 1.14 ± 0.17; K 1.67 ± 0.19; W 0.665 ± 0.16; H 1.17 ± 0.16; V 1.41 ± 0.096; S 1.16 ± 0.34; T 1.53 ± 0.25; F 1 ± 0.18; M 1.04 ± 0.38; L 1.32 ± 0.19; E 1.69 ± 0.21; N 1.63 ± 0.21; Q 1.36 ± 0.4; G 1.46 ± 0.23; D 1.45 ± 0.44; A 0.896 ± 0.17
A273: W 1.65 ± 0.18; C 0.584 ± 0.098; G 0.649 ± 0.24; S 0.646 ± 0.15; H 0.901 ± 0.3; N 1.3 ± 0.24; I 1.46 ± 0.34; D 0.919 ± 0.14; V 0.694 ± 0.13; M 0.796 ± 0.8; P 1.4 ± 0.28; R 1.13 ± 0.38; T 1.46 ± 0.34; K 0.589 ± 0.23; L 0.931 ± 0.1; F 0.993 ± 0.43
D277: M 0.115 ± 0.11; C 1.32 ± 0.18; A 0.843 ± 0.41; N 1.15 ± 0.65; T 1.59 ± 0.32; H 1.36 ± 0.54; R 1.34 ± 0.57; G 1.16 ± 0.2; V 1.23 ± 0.17; F 1.35 ± 0.39; I 1.45 ± 0.31; S 0.886 ± 0.28; W 0.81 ± 0.57; L 0.92 ± 0.12
Y272: F 1.27 ± 0.13; H 1.08 ± 0.32; V 0.735 ± 0.11; I 1.08 ± 0.3; G 1.2 ± 0.21; S 0.837 ± 0.15; T 1.44 ± 0.45; N 1.71 ± 0.45; C 1.13 ± 0.71; E 1.28 ± 0.18; W 1.01 ± 0.2; A 1.33 ± 0.22; P 1.38 ± 0.45; R 0.701 ± 0.25; M 1.63 ± 0.14; L 0.641 ± 0.46
C278: H 1.06 ± 0.35; E 1.66 ± 0.21; Y 0.449 ± 0.12; L 1.08 ± 0.46; Q 0.612 ± 0.12; K 1.57 ± 0.25; D 1.03 ± 0.54; W 0.795 ± 0.1; S 1.21 ± 0.18; R 1.51 ± 0.28; F 0.811 ± 0.14; G 1.08 ± 0.34; M 1.37 ± 0.14; I 0.402 ± 0.12; N 1.12 ± 0.22; P 1.22 ± 0.19; T 1.22 ± 0.19; V 0.943 ± 0.11; A 1.29 ± 0.29
L285: P -0.13 ± 0.21; W -0.0646 ± 0.056; T -0.111 ± 0.11; I 0.951 ± 0.32; D -0.216 ± 0.087; H -0.443 ± 0.1; E -0.0678 ± 0.11; V 0.239 ± 0.1; F 0.988 ± 0.25; Y -0.477 ± 0.072; A -0.0789 ± 0.071; G -0.0815 ± 0.1; Q -0.0107 ± 0.26; R -0.201 ± 0.1; S -0.0113 ± 0.096
S283: Y 0.69 ± 0.5; N 1.4 ± 0.29; C 0.98 ± 0.14; M 1.28 ± 0.22; Q 1.51 ± 0.21; T 1.47 ± 0.17; G 1.19 ± 0.11; E 0.826 ± 0.5; A 1.24 ± 0.14; R 1.29 ± 0.41; F 0.745 ± 0.076; W 0.819 ± 0.087; I 0.942 ± 0.12; L 0.985 ± 0.11; V 1.17 ± 0.29; D 1.29 ± 0.4; P 1.15 ± 0.37
D284: L 0.935 ± 0.21; H 1.14 ± 0.31; E 1 ± 0.29; R 1.55 ± 0.36; A 0.668 ± 0.26; G 0.99 ± 0.21; M 1.19 ± 0.42; T 0.863 ± 0.19; V 0.716 ± 0.093; N 1.29 ± 0.37; F 0.579 ± 0.099; I 1.14 ± 0.43; W 0.576 ± 0.1; S 1.27 ± 0.11; C 0.513 ± 0.086; P 0.0198 ± 0.1
G276: C 1.2 ± 0.65; L 1.11 ± 0.21; E 1.57 ± 0.32; V 1.05 ± 0.19; D 1.33 ± 0.75; S 1.42 ± 0.27; F 0.884 ± 0.19; I 0.493 ± 0.26; P 1.22 ± 0.22; R 1.35 ± 0.18; T 1.16 ± 0.21; A 1.41 ± 0.14; W 1.36 ± 0.15
G288: A 0.95 ± 0.38
G270: F 1.14 ± 0.39; H 1.07 ± 0.31; M 0.994 ± 0.46; T 1.09 ± 0.15; S 1.47 ± 0.17; C 1.41 ± 0.31; R 1.43 ± 0.39; V 1.26 ± 0.25; D 1.52 ± 0.2; L 0.945 ± 0.13; E 1.42 ± 0.72; Q 1.16 ± 0.38; N 1.4 ± 0.35; I 0.821 ± 0.36; P 1.43 ± 0.19; A 0.849 ± 0.32
P275: M 0.445 ± 0.12; A 0.693 ± 0.35; N 1.41 ± 0.16; G 1.14 ± 0.41; S 0.957 ± 0.27; L 0.807 ± 0.099; T 0.875 ± 0.18; D 1.63 ± 0.17; Y 0.943 ± 0.55; R 1.12 ± 0.28; K 1.45 ± 0.32; W 0.995 ± 0.1; E 0.52 ± 0.15; I 1.17 ± 0.49; V 0.683 ± 0.34; F 0.767 ± 0.26
G268: I 1.65 ± 0.17; T 1.52 ± 0.16; R 1.44 ± 0.2; D 1.53 ± 0.19; L 1.56 ± 0.23; Y 1.32 ± 0.19; P 1.07 ± 0.18; H 1.15 ± 0.61; M 0.465 ± 0.33; C 1.25 ± 0.42; Q 1.26 ± 0.61; S 1.55 ± 0.18; A 0.916 ± 0.13; N 1.03 ± 0.38; V 0.743 ± 0.19; F 1.16 ± 0.24
L282: V 0.86 ± 0.23; H 0.737 ± 0.71; W 0.522 ± 0.086; K 0.565 ± 0.1; P 0.541 ± 0.13; A 0.846 ± 0.18; Y 1.07 ± 0.17; I 0.764 ± 0.1; M 0.225 ± 0.27; D 1.26 ± 0.5; F 1.21 ± 0.33; R 0.128 ± 0.1; S 0.442 ± 0.08; T 0.466 ± 0.16; G 0.43 ± 0.11
I274: H 0.363 ± 0.074; M 0.974 ± 0.14; W 0.0744 ± 0.12; R 0.816 ± 0.21; F 1.13 ± 0.43; C 0.973 ± 0.19; S 0.98 ± 0.21; A 0.907 ± 0.16; D 0.889 ± 0.3; G 1.05 ± 0.26; Q 1.62 ± 0.2; N 1.27 ± 0.51; V 0.7 ± 0.15; Y 1.16 ± 0.29; L 1.02 ± 0.16
K287: I 1.27 ± 0.33; T 1.25 ± 0.2; R 0.533 ± 0.14; V 1.2 ± 0.36; D 1.27 ± 0.18; G 1.28 ± 0.16; P 0.105 ± 0.28; Y 0.843 ± 0.36; F 1.25 ± 0.2; L 0.865 ± 0.14; A 0.932 ± 0.14; N 1.49 ± 0.57; W 0.0714 ± 0.29; H 1.3 ± 0.15; Q 1.19 ± 0.51; S 0.94 ± 0.2; E 1.62 ± 0.27
K269: R 1.22 ± 0.28; V 1.22 ± 0.43; P 1.26 ± 0.41; S 1.41 ± 0.19; H 1.49 ± 0.22; W 0.728 ± 0.12; Y 1.33 ± 0.36; F 0.789 ± 0.12; Q 1.5 ± 0.53; C 1.09 ± 0.35; G 1.46 ± 0.45; N 1.23 ± 0.35; I 1.28 ± 0.17; L 1.45 ± 0.2; A 0.886 ± 0.2; T 1.47 ± 0.2
